From patent US20130034493A1 (RESEARCH DEVELOPMENT FOUNDATION, published 2013)

Target: T1, recombinant BMP4 (rBMP4) (mouse, UniProt P21275 293-408, limits assumed)
T1 sequence (looked up): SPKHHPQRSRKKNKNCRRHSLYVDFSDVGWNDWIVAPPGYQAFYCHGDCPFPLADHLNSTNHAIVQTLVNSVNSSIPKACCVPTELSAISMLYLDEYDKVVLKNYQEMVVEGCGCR
Test: cell-based or functional assay

B1: mouse recombinant Olfml3-FLAG tagged protein (rOlfml3-FLAG) (other, not shown: small tags and cut ends)
chain: QQHHLVEYMERRLAALEERLAQCQDQSSRHAAELRDFKNKMLPLLEVAEKERETLRTEADSISGRVDRLEREVDYLETQNPALPCVELDEKVTGGPGAKGKGRRNEKYDMVTDCSYTVAQVRSMKILKRFGGSVGLWTKDPLGPAEKIYVLDGTQNDTAFVFPRLRDFTLAMAARKASRIRVPFPWVGTGQLVYGGFLYYARRPPGGPGGGGELENTLQLIKFHLANRTVVDSSVFPAESLIPPYGLTADTYIDLAADEEGLWAVYATRDDDRHLCLAKLDPQTLDTEQQWDTPCPRENAEAAFVICGTLYVVYNTRPASRARIQCSFDASGTLAPERAALSYFPRRYGAHASLRYNPRERQLYAWDDGYQIVYKLEMKKKEEEV
  ERK1/2 phosphorylation in HUVECs: 5 fold
